The source of these data is the supplement of paper PMC7877785.

The nature of this series: self-splicing fitness, log relative to wild type (ln ratio); higher = more splicing; Tetrahymena group I intron in knt gene, E. coli kanamycin selection, DiMSum; sequences stand for … in CUCUCU…GGAGGGAAAAGUUAUCAGGCAUGCACCUGGUAGCUAGUCUUUAAACCAAUAGAUUGCAUCGGUUUAAAAGGCAAGACCGUCAAAUUGCGGGAAAGGGGUCAACAGCCGUUCAGUACCAAGUCUCAGGGGAAACUUUGAGAUGGCCUUGCAAAGGGUAUGGUAAUAAGCUGACGGACAUGGUCCUAACCACGCAGCCAAGUCCUAAGUCAACAGAUCUUCUGUUGAUAUGGAUGCAGUUCACAGACUAAAUGUCGGUCGGGGAAGAUGUAUUCUUCUCAUAAGAUAUAGUCGGACCUCUCCUUAAUGGGAGCUAGCGGAUGAAGUGAUGCAACACUGGAGCCGCUGGGAACUAAUUUGUAUGCGAAAGUAUAUUGAUUAGUUUUGGAGUACUCGUGGUCG
The essentials:
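The eight P1ex-region nucleotides of an intron in the knt kanamycin-resistance gene on pET-22b(+) were all randomised and the library put into E. coli BL21(DE3). Six replicate transformations were grown overnight at 37°C or 30°C on LB agar with or without 25 μg/mL kanamycin, together with 100 μg/mL carbenicillin, 50 μM IPTG and 0.2% rhamnose. Colonies were pooled and amplicon-sequenced on an Illumina HiSeq 2500. Fitness from DiMSum is the error-weighted combination of wild-type-normalised replicate fold changes, kanamycin over none.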

± gives the uncertainty stated by the source.

On to AUAAAGCAAUAUUACGAAUU, for which the “self-splicing fitness (ln)” value was -1.23 ± 0.064 (30 °C) and -0.731 ± 0.089 (37 °C).

On to AUAAAGCAAUAUUACGACAU, for which the “self-splicing fitness (ln)” value stood at 0.424 ± 0.012 (30 °C) and 0.344 ± 0.032 (37 °C).

For AUAAAGCAAUAUUACGACUA, the “self-splicing fitness (ln)” value by setting is: (30 °C) 0.277 ± 0.083; (37 °C) 0.129 ± 0.1.

In the case of AUAAAGCAAUAUUACGACUU, the “self-splicing fitness (ln)” value is 0.0576 ± 0.088 (30 °C) and 0.686 ± 0.13 (37 °C).

In the case of AUAAAGCAAUAUUACGAGGC, the “self-splicing fitness (ln)” value reads like this: (30 °C) -3.29 ± 0.17; (37 °C) -2.7 ± 0.32.

Regarding AUAAAGCAAUAUUACGAGUG, the “self-splicing fitness (ln)” value by setting is: (30 °C) -2.03 ± 0.1; (37 °C) -1.16 ± 0.12.

In the case of AUAAAGCAAUAUUACGAUGA, the “self-splicing fitness (ln)” value (30 °C) is -0.326 ± 0.083 and the “self-splicing fitness (ln)” value (37 °C) is 0.153 ± 0.12.

Take AUAAAGCAAUAUUACGAUUU: the “self-splicing fitness (ln)” value by setting is: (30 °C) 0.496 ± 0.082; (37 °C) 0.827 ± 0.1.

For the sequence AUAAAGCAAUAUUACGCCAG, the “self-splicing fitness (ln)” value is -0.993 ± 0.12 (30 °C) and -0.785 ± 0.16 (37 °C).

Take AUAAAGCAAUAUUACGCCAU: the “self-splicing fitness (ln)” value was -0.694 ± 0.095 (30 °C) and -0.176 ± 0.14 (37 °C).

Take AUAAAGCAAUAUUACGCCUU: the “self-splicing fitness (ln)” value is -0.274 ± 0.094 (30 °C) and 0.0912 ± 0.12 (37 °C).

AUAAAGCAAUAUUACGCUUG: the “self-splicing fitness (ln)” value is, setting by setting: (30 °C) -0.77 ± 0.082; (37 °C) -0.368 ± 0.11.

Take AUAAAGCAAUAUUACGGAAC: the “self-splicing fitness (ln)” value was -2.45 ± 0.26 (30 °C) and -0.934 ± 0.19 (37 °C).

As for AUAAAGCAAUAUUACGGAGC, the “self-splicing fitness (ln)” value (30 °C) is -2.79 ± 0.2 and the “self-splicing fitness (ln)” value (37 °C) is -2.21 ± 0.22.

Turning to AUAAAGCAAUAUUACGGCAG, the “self-splicing fitness (ln)” value reads like this: (30 °C) -0.699 ± 0.092; (37 °C) -0.0772 ± 0.13.

As for AUAAAGCAAUAUUACGGCGA, the “self-splicing fitness (ln)” value (30 °C) is 0.447 ± 0.1 and the “self-splicing fitness (ln)” value (37 °C) was determined as 1.03 ± 0.14.

On to AUAAAGCAAUAUUACGGGAC, for which the “self-splicing fitness (ln)” value runs as follows: (30 °C) -1.72 ± 0.1; (37 °C) -2.4 ± 0.16.

As to AUAAAGCAAUAUUACGGGAU, the “self-splicing fitness (ln)” value reads like this: (30 °C) -0.81 ± 0.055; (37 °C) -0.671 ± 0.083.

For the sequence AUAAAGCAAUAUUACGGGUG, the “self-splicing fitness (ln)” value by setting is: (30 °C) -1.03 ± 0.082; (37 °C) -0.259 ± 0.094.

AUAAAGCAAUAUUACGGGUU: the “self-splicing fitness (ln)” value (30 °C) was -2.17 ± 0.09 and the “self-splicing fitness (ln)” value (37 °C) was -1.17 ± 0.098.

AUAAAGCAAUAUUACGUACA: the “self-splicing fitness (ln)” value was -0.00533 ± 0.067 (30 °C) and 0.315 ± 0.098 (37 °C).

With AUAAAGCAAUAUUACGUAGA, the “self-splicing fitness (ln)” value (30 °C) is -2.36 ± 0.11 and the “self-splicing fitness (ln)” value (37 °C) is -0.832 ± 0.12.

In the case of AUAAAGCAAUAUUACGUGUA, the “self-splicing fitness (ln)” value by setting is: (30 °C) -1.55 ± 0.069; (37 °C) -0.325 ± 0.089.

As for AUAAAGCAAUAUUACGUUAC, the “self-splicing fitness (ln)” value (30 °C) is -2.55 ± 0.13 and the “self-splicing fitness (ln)” value (37 °C) was -0.574 ± 0.12.

Turning to AUAAAGCAAUAUUACGUUUU, the “self-splicing fitness (ln)” value was -2.37 ± 0.097 (30 °C) and -1.11 ± 0.12 (37 °C).

For AUACAGCAAUAUUACGACCU, the “self-splicing fitness (ln)” value by setting is: (30 °C) 0.331 ± 0.084; (37 °C) 0.122 ± 0.094.

For the sequence AUACAGCAAUAUUACGACUA, the “self-splicing fitness (ln)” value reads like this: (30 °C) -0.177 ± 0.1; (37 °C) -0.541 ± 0.089.

For the sequence AUACAGCAAUAUUACGAGCG, the “self-splicing fitness (ln)” value is, setting by setting: (30 °C) -1.63 ± 0.096; (37 °C) -0.55 ± 0.1.

On to AUACAGCAAUAUUACGAGGC, for which the “self-splicing fitness (ln)” value (30 °C) is -2.99 ± 0.19 and the “self-splicing fitness (ln)” value (37 °C) is -2.23 ± 0.2.

AUACAGCAAUAUUACGAUAA: the “self-splicing fitness (ln)” value was -1.37 ± 0.099 (30 °C) and -0.374 ± 0.11 (37 °C).

In the case of AUACAGCAAUAUUACGAUCG, the “self-splicing fitness (ln)” value reads like this: (30 °C) -0.733 ± 0.071; (37 °C) -0.839 ± 0.097.

Regarding AUACAGCAAUAUUACGCCCG, the “self-splicing fitness (ln)” value reads like this: (30 °C) -0.847 ± 0.17; (37 °C) -0.634 ± 0.25.

Regarding AUACAGCAAUAUUACGCCUC, the “self-splicing fitness (ln)” value reads like this: (30 °C) -2.79 ± 0.2; (37 °C) -1.86 ± 0.17.
